Changes are numbered by the printed parent chain. Names may count otherwise.
T1: EsCas13d, nuclease-dead (Eubacterium siraeum, UniProt B0MS50, R295A;H300A;R849A;H854A)
T1 sequence: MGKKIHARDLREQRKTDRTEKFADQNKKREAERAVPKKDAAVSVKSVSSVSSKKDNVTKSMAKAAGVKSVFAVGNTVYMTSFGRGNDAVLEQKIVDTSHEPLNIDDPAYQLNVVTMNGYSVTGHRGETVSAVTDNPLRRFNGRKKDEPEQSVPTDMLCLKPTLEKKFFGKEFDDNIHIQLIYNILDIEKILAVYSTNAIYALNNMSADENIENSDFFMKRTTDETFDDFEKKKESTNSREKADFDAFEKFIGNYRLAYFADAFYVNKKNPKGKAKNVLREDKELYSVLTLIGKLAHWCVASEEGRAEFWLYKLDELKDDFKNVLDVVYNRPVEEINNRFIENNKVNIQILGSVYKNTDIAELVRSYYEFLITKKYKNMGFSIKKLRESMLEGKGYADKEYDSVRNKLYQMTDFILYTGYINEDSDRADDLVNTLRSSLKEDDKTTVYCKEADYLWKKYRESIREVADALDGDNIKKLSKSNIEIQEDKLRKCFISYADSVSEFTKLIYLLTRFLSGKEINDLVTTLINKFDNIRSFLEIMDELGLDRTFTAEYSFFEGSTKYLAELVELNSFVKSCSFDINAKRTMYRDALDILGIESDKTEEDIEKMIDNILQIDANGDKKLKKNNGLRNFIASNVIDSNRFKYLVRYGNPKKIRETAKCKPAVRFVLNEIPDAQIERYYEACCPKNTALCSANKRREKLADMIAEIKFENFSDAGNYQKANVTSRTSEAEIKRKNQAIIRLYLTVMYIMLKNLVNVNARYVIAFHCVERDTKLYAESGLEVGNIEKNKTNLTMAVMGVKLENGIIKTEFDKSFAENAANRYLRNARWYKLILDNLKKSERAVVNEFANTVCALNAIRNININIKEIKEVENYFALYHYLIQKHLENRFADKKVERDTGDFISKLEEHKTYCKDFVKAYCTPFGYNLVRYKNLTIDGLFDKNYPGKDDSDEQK

B1: target 1 insU 3' of 21,insC 3' of 5 (mixed)
RNA 1: CACCCGUGCAAAAAUGCAGGGGUCUAAAACUGAGCGGAUAACCUCUCUAUGG
RNA 2: GGGAAUGGAUCCACAUCUACGAAUUCGUACCUAUAGAGAGGUUAUCCGCCUCACCGAGAUCGGAAGAGCACACGU
B2: target 1 insA 3' of 5,insC 3' of 1 (mixed)
RNA 1: B1 RNA 1
RNA 2: GGGAAUGGAUCCACAUCUACGAAUUCGUACCAUAGAGAGGUUAUCCGACUCACCCGAGAUCGGAAGAGCACACGU
B3: target 1 G5U,U10C (mixed)
RNA 1: B1 RNA 1
RNA 2: GGGAAUGGAUCCACAUCUACGAAUUCGUACCAUAGAGAGGUCAUCCUCUCACCGAGAUCGGAAGAGCACACGU
B4: target 3 G4A,U7A (mixed)
RNA 1: CACCCGUGCAAAAUUGCAGGGGUCUAAAACGACCUGAAUAUUUCAGAUCAAA
RNA 2: GGGAAUGGAUCCACAUCUACGAAUUCGUUUUUGAUCUGAAAUAUACAAGUCUGCAGAUCGGAAGAGCACACGU
B5: target 3 C6U,A12U (mixed)
RNA 1: B4 RNA 1
RNA 2: B4 RNA 2 with A40U, A45U, C46U, A48G
B6: target 3 A5C,C6A (mixed)
RNA 1: B4 RNA 1
RNA 2: B4 RNA 2 with A45U, C46A, A47C, A48G
B7: target 3 C1A,U8G (mixed)
RNA 1: B4 RNA 1
RNA 2: B4 RNA 2 with U44G, A45U, A48G, C51A
B8: target 3 G4C,U22G (mixed)
RNA 1: B4 RNA 1
RNA 2: B4 RNA 2 with U30G, A45U, A48C
B9: target 3 U7C,U22C (mixed)
RNA 1: B4 RNA 1
RNA 2: B4 RNA 2 with U30C, A45C, A48G
B10: target 3 insG 3' of 7,insU 3' of 4 (mixed)
RNA 1: B4 RNA 1
RNA 2: GGGAAUGGAUCCACAUCUACGAAUUCGUUUUUGAUCUGAAAUAUUGCAGUGUCUGCAGAUCGGAAGAGCACACGU
B11: target 3 U7A,U8G (mixed)
RNA 1: B4 RNA 1
RNA 2: B4 RNA 2 with U44G, A48G
B12: target 3 insA 3' of 22,insC 3' of 20 (mixed)
RNA 1: B4 RNA 1
RNA 2: GGGAAUGGAUCCACAUCUACGAAUUCGUUUAUUCGAUCUGAAAUAUUCAGGUCUGCAGAUCGGAAGAGCACACGU
B13: target 3 insC 3' of 5,insC 3' of 5 (mixed)
RNA 1: B4 RNA 1
RNA 2: B10 RNA 2 with G46C, C47A, A48C, G49C, U50G
B14: target 3 insG 3' of 5 (mixed)
RNA 1: B4 RNA 1
RNA 2: GGGAAUGGAUCCACAUCUACGAAUUCGUUUUUGAUCUGAAAUAUUCAGGGUCUGCAGAUCGGAAGAGCACACGU
B15: target 3 del2,del6 (mixed)
RNA 1: B4 RNA 1
RNA 2: GGGAAUGGAUCCACAUCUACGAAUUCGUUUUUGAUCUGAAAUAUUAGGCUGCAGAUCGGAAGAGCACACGU
B16: target 3 insC 3' of 13,insC 3' of 3 (mixed)
RNA 1: B4 RNA 1
RNA 2: B10 RNA 2 with A40C, U42A, A43U, U44A, G46U, U50G, G51C
B17: target 3 insA 3' of 22,insU 3' of 19 (mixed)
RNA 1: B4 RNA 1
RNA 2: B12 RNA 2 with C34G, G35U
B18: target 3 insG 3' of 7,insU 3' of 3 (mixed)
RNA 1: B4 RNA 1
RNA 2: B10 RNA 2 with U50G, G51U
B19: target 3 insC 3' of 4,insA 3' of 2 (mixed)
RNA 1: B4 RNA 1
RNA 2: B10 RNA 2 with G46C, C47A, A48G, G49C, U50G, G51U, U52A
B20: target 3 A11C,A18G (mixed)
RNA 1: B4 RNA 1
RNA 2: B4 RNA 2 with A34G, A41C, A45U, A48G
B21: target 3 U2A,C16U (mixed)
RNA 1: B4 RNA 1
RNA 2: B4 RNA 2 with C36U, A45U, A48G, U50A
B22: target 3 insU 3' of 11,insG 3' of 6 (mixed)
RNA 1: B4 RNA 1
RNA 2: B10 RNA 2 with A43U, U44A, G46U, A48G, G49A, U50G
B23: target 3 U2A,A11G (mixed)
RNA 1: B4 RNA 1
RNA 2: B4 RNA 2 with A41G, A45U, A48G, U50A
B24: target 3 insC 3' of 9,insA 3' of 6 (mixed)
RNA 1: B4 RNA 1
RNA 2: B10 RNA 2 with U44C, G46U, G49A, U50G
B25: target 3 insU 3' of 9,insA 3' of 8 (mixed)
RNA 1: B4 RNA 1
RNA 2: B10 RNA 2 with G46A, C47U, A48C, G49A, U50G
B26: target 3 U2G,G4U (mixed)
RNA 1: B4 RNA 1
RNA 2: B4 RNA 2 with A45U, A48U, U50G
B27: target 3 del1,del6 (mixed)
RNA 1: B4 RNA 1
RNA 2: B15 RNA 2 with C49U
B28: target 3 insA 3' of 14,insA 3' of 2 (mixed)
RNA 1: B4 RNA 1
RNA 2: B10 RNA 2 with U42A, A43U, U44A, G46U, U50G, G51U, U52A
B29: target 3 U8C,U22A (mixed)
RNA 1: B4 RNA 1
RNA 2: B4 RNA 2 with U30A, U44C, A45U, A48G
B30: target 3 G19U (mixed)
RNA 1: B4 RNA 1
RNA 2: B4 RNA 2 with G33U, A45U, A48G
B31: target 3 insU 3' of 22,insG 3' of 2 (mixed)
RNA 1: B4 RNA 1
RNA 2: GGGAAUGGAUCCACAUCUACGAAUUCGUUUUUUGAUCUGAAAUAUUCAGGUGCUGCAGAUCGGAAGAGCACACGU

The binders below were run against T1, EsCas13d, nuclease-dead (assay: crRNA (strand 1, pre-loaded); Mg2+; 40 mM Tris-HCl pH 7.5, 150 mM NaCl, 6 mM MgCl2, 1 mM DTT, 0.1% Tween-20, 0.2 mg/ml BSA; 25 C; 10 min per concentration, then washed). Details: tags: His6-TwinStrep-SUMO cleaved; N-terminal SNAP kept (SNAP-Surface 488); label: 3' end held by stalled T7 RNA polymerase.
For B1, the Kd was 50 ± 10 nM.
B2 was tested, and the Kd was 8.4 ± 1.6 nM.
For B3, the Kd was 95 ± 19 nM.
B4 was tested, and the Kd was 21.1 ± 2.25 nM.
Work on B5 yielded a Kd of 88 ± 21.5 nM.
B6 was tested, and the Kd was 49 ± 5 nM.
Binder B7 has a Kd of 74 ± 16 nM.
For B8, the Kd was 85.5 ± 24.5 nM.
With B9 the Kd was 70.5 ± 13.5 nM.
B10 gave a Kd of 32 ± 6.1 nM.
For B11, the Kd was 84 ± 24 nM.
Work on B12 yielded a Kd of 86 ± 34.5 nM.
For B13, the Kd was 11.1 ± 0.7 nM.
B14 gave a Kd of 19.9 ± 1.95 nM.
For B15, the Kd was 18 ± 1.85 nM.
B16 showed a Kd of 81 ± 22 nM.
Binder B17 has a Kd of 65 ± 15 nM.
Binder B18 has a Kd of 47.5 ± 10.5 nM.
Binder B19 has a Kd of 23.9 ± 3.2 nM.
B20 gave a Kd of 73 ± 22.5 nM.
Binder B21 has a Kd of 45.2 ± 8.25 nM.
Binder B22 has a Kd of 87 ± 14.5 nM.
In the case of B23, the Kd is reported as 73.5 ± 24 nM.
With B24 the Kd was 76.5 ± 16 nM.
B25 was tested, and the Kd was 71.5 ± 21.5 nM.
B26 showed a Kd of 2.11 ± 0.25 nM.
B27 gave a Kd of about 56 nM.
Binder B28 has a Kd of 64 ± 10 nM.
For B29, the Kd was 42.3 ± 4.95 nM.
B30 gave a Kd of 83 ± 9.5 nM.
B31 showed a Kd of 32.2 ± 3.15 nM.
